Data published in patent publication US20250382359A1.

Target: GFRAL (co-expressed with RET on HEK293 stable cells) (UniProt Q6UXV0)
Assay: cell-based or functional assay

Chain of GFRAL (co-expressed with RET on HEK293 stable cells) (Q6UXV0 19-394 limits assumed): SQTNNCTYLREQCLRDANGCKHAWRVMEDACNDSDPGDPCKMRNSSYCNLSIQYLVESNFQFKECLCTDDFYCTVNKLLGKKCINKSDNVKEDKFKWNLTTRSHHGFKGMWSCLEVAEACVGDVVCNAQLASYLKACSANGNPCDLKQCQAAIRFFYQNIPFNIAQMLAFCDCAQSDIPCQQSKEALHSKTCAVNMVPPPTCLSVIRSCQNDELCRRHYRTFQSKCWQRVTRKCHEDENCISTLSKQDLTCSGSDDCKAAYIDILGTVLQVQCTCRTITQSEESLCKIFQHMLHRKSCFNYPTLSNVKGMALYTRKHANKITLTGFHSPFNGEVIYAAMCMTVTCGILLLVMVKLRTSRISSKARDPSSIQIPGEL

Substance “GDF15 (ligand used in the GFRAL/RET cell assays) (from UniProt Q99988 197-308)” has a Luciferase assay, GFRAL/RET/SRE reporter HEK293 cells; EC80 of GDF15 of 2 nM and a pERK assay, GFRAL/RET HEK293 cells; EC80 of GDF15 of 850 pM.
